Starred links: 1 amine or outer side, 2 acyl side, 3 side chain; linkers in the order of their positions; H or OH if unused. Non-standard residues stand in square brackets, D forms with d. Groups on a side chain read outwards from the residue. *: point of attachment. γGlu = O=C(O)[C@H](CCC(=O)[*:2])N[*:1]; Palmitoyl = CCCCCCCCCCCCCCCC(=O)*; Ac4c = NC1(C(=O)O)CCC1
Columns and labels:
Test in all cases: cell-based or functional assay
[1] = molecular target: human glucagon receptor (Glucagon-R) (human, UniProt P47871 26-477)
[2] = molecular target: human glucagon-like peptide 1 receptor (GLP-1R) (human, UniProt P43220 24-463)
[3] = molecular target: T1, endogenous GLP-1 receptor of a murine insulinoma cell line (murine, UniProt O35659 22-463)
T1 sequence (looked up): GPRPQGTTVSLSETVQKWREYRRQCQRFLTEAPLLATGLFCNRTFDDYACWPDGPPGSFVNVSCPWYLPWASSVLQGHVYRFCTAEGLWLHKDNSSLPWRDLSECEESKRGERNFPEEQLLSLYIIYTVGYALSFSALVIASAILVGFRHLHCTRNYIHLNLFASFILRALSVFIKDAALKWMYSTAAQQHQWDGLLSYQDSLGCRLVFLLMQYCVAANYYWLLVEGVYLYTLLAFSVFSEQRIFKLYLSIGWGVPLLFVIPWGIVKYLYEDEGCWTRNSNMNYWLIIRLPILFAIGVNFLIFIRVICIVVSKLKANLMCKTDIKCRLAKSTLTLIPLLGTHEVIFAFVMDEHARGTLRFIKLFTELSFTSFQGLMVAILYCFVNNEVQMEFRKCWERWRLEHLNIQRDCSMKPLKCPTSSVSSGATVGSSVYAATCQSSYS

[4] = molecular target: endogenous glucagon receptor of primary rat hepatocytes (rat, UniProt P30082 27-485)
endogenous glucagon receptor of primary rat hepatocytes, sequence (P30082 27-485): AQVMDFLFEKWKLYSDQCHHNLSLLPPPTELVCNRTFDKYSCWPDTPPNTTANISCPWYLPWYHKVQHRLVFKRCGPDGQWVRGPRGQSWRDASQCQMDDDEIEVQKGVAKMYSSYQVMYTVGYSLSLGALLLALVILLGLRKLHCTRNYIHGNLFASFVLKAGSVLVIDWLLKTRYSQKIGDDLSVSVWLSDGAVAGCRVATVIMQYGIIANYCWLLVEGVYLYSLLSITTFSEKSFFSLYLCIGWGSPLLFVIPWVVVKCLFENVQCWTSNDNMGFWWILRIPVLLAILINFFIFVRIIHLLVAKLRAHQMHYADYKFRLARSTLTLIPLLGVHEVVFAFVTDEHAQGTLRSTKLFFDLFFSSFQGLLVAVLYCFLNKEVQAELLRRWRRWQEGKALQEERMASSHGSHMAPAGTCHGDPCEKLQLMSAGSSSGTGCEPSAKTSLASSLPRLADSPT

human glucagon receptor (Glucagon-R), sequence (P47871 26-477): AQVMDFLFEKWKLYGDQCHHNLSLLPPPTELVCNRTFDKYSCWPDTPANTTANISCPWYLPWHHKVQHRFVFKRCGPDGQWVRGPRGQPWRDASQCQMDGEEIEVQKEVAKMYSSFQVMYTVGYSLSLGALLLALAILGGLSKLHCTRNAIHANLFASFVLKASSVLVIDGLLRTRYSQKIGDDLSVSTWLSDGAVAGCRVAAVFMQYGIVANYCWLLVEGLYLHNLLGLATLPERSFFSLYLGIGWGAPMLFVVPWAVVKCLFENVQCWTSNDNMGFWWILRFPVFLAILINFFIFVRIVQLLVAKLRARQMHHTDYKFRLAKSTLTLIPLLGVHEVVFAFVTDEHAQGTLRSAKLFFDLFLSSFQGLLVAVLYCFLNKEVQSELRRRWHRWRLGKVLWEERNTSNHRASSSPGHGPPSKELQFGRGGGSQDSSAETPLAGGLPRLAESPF

B1: Compound 14: H-H-Ac4c-QGTFTSDYSKYLDE-K(Hexadecanoyl-isoGlu)-AAKDFIEWLESA-NH2 (peptide)
peptide: H-H[Ac4c]QGTFTSDYSKYLDEK([γGlu-Palmitoyl])AAKDFIEWLESA-NH2
SMILES: CCCCCCCCCCCCCCCC(=O)N[C@@H](CCC(=O)NCCCC[C@H](NC(=O)[C@H](CCC(=O)O)NC(=O)[C@H](CC(=O)O)NC(=O)[C@H](CC(C)C)NC(=O)[C@H](Cc1ccc(O)cc1)NC(=O)[C@H](CCCCN)NC(=O)[C@H](CO)NC(=O)[C@H](Cc1ccc(O)cc1)NC(=O)[C@H](CC(=O)O)NC(=O)[C@H](CO)NC(=O)[C@@H](NC(=O)[C@H](Cc1ccccc1)NC(=O)[C@@H](NC(=O)CNC(=O)[C@H](CCC(N)=O)NC(=O)C1(NC(=O)[C@@H](N)Cc2c[nH]cn2)CCC1)[C@@H](C)O)[C@@H](C)O)C(=O)N[C@@H](C)C(=O)N[C@@H](C)C(=O)N[C@@H](CCCCN)C(=O)N[C@@H](CC(=O)O)C(=O)N[C@@H](Cc1ccccc1)C(=O)N[C@H](C(=O)N[C@@H](CCC(=O)O)C(=O)N[C@@H](Cc1c[nH]c2ccccc12)C(=O)N[C@@H](CC(C)C)C(=O)N[C@@H](CCC(=O)O)C(=O)N[C@@H](CO)C(=O)N[C@@H](C)C(N)=O)[C@@H](C)CC)C(=O)O
EC50 hGCGR CHO-K1 [nM] (cAMP, AlphaScreen) [1]: 18.3 nM | EC50 hGLP-1R CHO-K1 [nM] (cAMP, AlphaScreen) [2]: 0.68 nM | EC50 [nM] (cAMP in murine insulinoma cell line) [3]: 0.13 nM | EC50 [nM] (inhibition of glycogen synthesis rate in primary rat hepatocytes) [4]: 0.06 nM

B2: Compound 9: H-H-Ac4c-HGTFTSDYSKYLDS-K(Hexadecanoyl-isoGlu)-AAHDFVEWLLSA-NH2 (peptide)
peptide: H-H[Ac4c]HGTFTSDYSKYLDSK([γGlu-Palmitoyl])AAHDFVEWLLSA-NH2
SMILES: CCCCCCCCCCCCCCCC(=O)N[C@@H](CCC(=O)NCCCC[C@H](NC(=O)[C@H](CO)NC(=O)[C@H](CC(=O)O)NC(=O)[C@H](CC(C)C)NC(=O)[C@H](Cc1ccc(O)cc1)NC(=O)[C@H](CCCCN)NC(=O)[C@H](CO)NC(=O)[C@H](Cc1ccc(O)cc1)NC(=O)[C@H](CC(=O)O)NC(=O)[C@H](CO)NC(=O)[C@@H](NC(=O)[C@H](Cc1ccccc1)NC(=O)[C@@H](NC(=O)CNC(=O)[C@H](Cc1c[nH]cn1)NC(=O)C1(NC(=O)[C@@H](N)Cc2c[nH]cn2)CCC1)[C@@H](C)O)[C@@H](C)O)C(=O)N[C@@H](C)C(=O)N[C@@H](C)C(=O)N[C@@H](Cc1c[nH]cn1)C(=O)N[C@@H](CC(=O)O)C(=O)N[C@@H](Cc1ccccc1)C(=O)N[C@H](C(=O)N[C@@H](CCC(=O)O)C(=O)N[C@@H](Cc1c[nH]c2ccccc12)C(=O)N[C@@H](CC(C)C)C(=O)N[C@@H](CC(C)C)C(=O)N[C@@H](CO)C(=O)N[C@@H](C)C(N)=O)C(C)C)C(=O)O
EC50 hGCGR CHO-K1 [nM] (cAMP, AlphaScreen) [1]: 0.2 nM | EC50 hGLP-1R CHO-K1 [nM] (cAMP, AlphaScreen) [2]: 0.33 nM | EC50 [nM] (cAMP in murine insulinoma cell line) [3]: 0.21 nM | EC50 [nM] (inhibition of glycogen synthesis rate in primary rat hepatocytes) [4]: 0.07 nM

B3: Compound 6: H-HAHGTFTSDYSKYLDS-K(Hexadecanoyl-isoGlu)-AAHDFVEWLLSA-NH2 (peptide)
peptide: H-HAHGTFTSDYSKYLDSK([γGlu-Palmitoyl])AAHDFVEWLLSA-NH2
SMILES: CCCCCCCCCCCCCCCC(=O)N[C@@H](CCC(=O)NCCCC[C@H](NC(=O)[C@H](CO)NC(=O)[C@H](CC(=O)O)NC(=O)[C@H](CC(C)C)NC(=O)[C@H](Cc1ccc(O)cc1)NC(=O)[C@H](CCCCN)NC(=O)[C@H](CO)NC(=O)[C@H](Cc1ccc(O)cc1)NC(=O)[C@H](CC(=O)O)NC(=O)[C@H](CO)NC(=O)[C@@H](NC(=O)[C@H](Cc1ccccc1)NC(=O)[C@@H](NC(=O)CNC(=O)[C@H](Cc1c[nH]cn1)NC(=O)[C@H](C)NC(=O)[C@@H](N)Cc1c[nH]cn1)[C@@H](C)O)[C@@H](C)O)C(=O)N[C@@H](C)C(=O)N[C@@H](C)C(=O)N[C@@H](Cc1c[nH]cn1)C(=O)N[C@@H](CC(=O)O)C(=O)N[C@@H](Cc1ccccc1)C(=O)N[C@H](C(=O)N[C@@H](CCC(=O)O)C(=O)N[C@@H](Cc1c[nH]c2ccccc12)C(=O)N[C@@H](CC(C)C)C(=O)N[C@@H](CC(C)C)C(=O)N[C@@H](CO)C(=O)N[C@@H](C)C(N)=O)C(C)C)C(=O)O
EC50 hGCGR CHO-K1 [nM] (cAMP, AlphaScreen) [1]: 0.83 nM | EC50 hGLP-1R CHO-K1 [nM] (cAMP, AlphaScreen) [2]: 0.62 nM | EC50 [nM] (cAMP in murine insulinoma cell line) [3]: 0.4 nM | EC50 [nM] (inhibition of glycogen synthesis rate in primary rat hepatocytes) [4]: 0.87 nM

B4: Compound 7: H-H-DAla-HGTFTSDYSKYLDS-K(Hexadecanoyl-isoGlu)-AAHDFVEWLLSA-NH2 (peptide)
peptide: H-H[dA]HGTFTSDYSKYLDSK([γGlu-Palmitoyl])AAHDFVEWLLSA-NH2
SMILES: CCCCCCCCCCCCCCCC(=O)N[C@@H](CCC(=O)NCCCC[C@H](NC(=O)[C@H](CO)NC(=O)[C@H](CC(=O)O)NC(=O)[C@H](CC(C)C)NC(=O)[C@H](Cc1ccc(O)cc1)NC(=O)[C@H](CCCCN)NC(=O)[C@H](CO)NC(=O)[C@H](Cc1ccc(O)cc1)NC(=O)[C@H](CC(=O)O)NC(=O)[C@H](CO)NC(=O)[C@@H](NC(=O)[C@H](Cc1ccccc1)NC(=O)[C@@H](NC(=O)CNC(=O)[C@H](Cc1c[nH]cn1)NC(=O)[C@@H](C)NC(=O)[C@@H](N)Cc1c[nH]cn1)[C@@H](C)O)[C@@H](C)O)C(=O)N[C@@H](C)C(=O)N[C@@H](C)C(=O)N[C@@H](Cc1c[nH]cn1)C(=O)N[C@@H](CC(=O)O)C(=O)N[C@@H](Cc1ccccc1)C(=O)N[C@H](C(=O)N[C@@H](CCC(=O)O)C(=O)N[C@@H](Cc1c[nH]c2ccccc12)C(=O)N[C@@H](CC(C)C)C(=O)N[C@@H](CC(C)C)C(=O)N[C@@H](CO)C(=O)N[C@@H](C)C(N)=O)C(C)C)C(=O)O
EC50 hGCGR CHO-K1 [nM] (cAMP, AlphaScreen) [1]: 0.6 nM | EC50 hGLP-1R CHO-K1 [nM] (cAMP, AlphaScreen) [2]: 0.35 nM | EC50 [nM] (cAMP in murine insulinoma cell line) [3]: 0.3 nM | EC50 [nM] (inhibition of glycogen synthesis rate in primary rat hepatocytes) [4]: 0.28 nM

— US9988429B2, “Glucagon analogues” (Zealand Pharma A/S, priority 2013, dated 2018)
